Article PMC3906829

Molecular target: membrane-embedded MraY from Aquifex aeolicus used for structure-guided disulfide cross-bridge experiments (Aquifex aeolicus) (UniProt O66465)
Assay: cross-linking

stoichiometry N: 2
Substance: membrane-embedded MraY from Aquifex aeolicus used for structure-guided disulfide cross-bridge experiments (from UniProt O66465 1-359) (enzyme)
